Assay results as given in publication PMC2894018 (2010).

B1: HIV-1 Vpr from NL43 (Vpr^wt) fused to the N- or C-terminal fragment of Venus [HIV-1 (NL43)] / itself (parent complex)
chain: MEQAPEDQGPQREPYNEWTLELLEELKSEAVRHFPRIWLHNLGQHIYETYGDTWAGVEAIIRILQQLLFIHFRIGCRHSRIGVTRQRRARNGASRS

Variants of: B1
Experiment: BiFC (bimolecular fluorescence complementation), flow cytometry on cells; cells cotransfected with VC and VN fusions of the same Vpr mutant; vector control 0.1; parent: 35.7

Variant | response [% BiFC positive cells]
chain 1 H71R | 1.65
chain 1 L68E | 1.03
chain 1 A30L | 1.19
